Drawing on publication PMC9974451, “Transportin 1 is a major nuclear import receptor of the nitric oxide synthase interacting protein” (The Journal of Biological Chemistry, 2023), this text covers binding result and Kd for four molecules.

What all share (conditions): both partners purified
Assay [1] concerns the target T1, His-S-importin β (full length) (UniProt Q14974 1-876).
T1 construct: called full-length importin β (FL) in the fragment experiment; the ΔN fragment ends at aa 876; also called His-importin β; S-His-importin β
The experiment in a line: pull-down; 100 pmol His-NOSIP-MBP (WT or K78A/K79A) or MBP immobilised on amylose beads, 100 pmol purified His-tagged NTR, with or without 300 pmol RanQ69L(1-180)-GTP, 3 h, 4 °C, TPB; SDS-PAGE, Coomassie.

Assay [2] concerns the target T1, His-S-importin β (full length). As to the kind of experiment: pull-down; competition: 100 pmol His-S-importin β immobilised on S-protein beads, 100 pmol His-NOSIP with 0, 100, 300, 1000 pmol His-importin α, or the other way around; Coomassie.
In assay [3] the target is T2, His-TNPO1 (transportin 1) (UniProt Q92973-2 1-890).
T2 construct: transportin 1; The length 890 is printed for the MBP construct only; also called His-transportin 1
T2 sequence (looked up): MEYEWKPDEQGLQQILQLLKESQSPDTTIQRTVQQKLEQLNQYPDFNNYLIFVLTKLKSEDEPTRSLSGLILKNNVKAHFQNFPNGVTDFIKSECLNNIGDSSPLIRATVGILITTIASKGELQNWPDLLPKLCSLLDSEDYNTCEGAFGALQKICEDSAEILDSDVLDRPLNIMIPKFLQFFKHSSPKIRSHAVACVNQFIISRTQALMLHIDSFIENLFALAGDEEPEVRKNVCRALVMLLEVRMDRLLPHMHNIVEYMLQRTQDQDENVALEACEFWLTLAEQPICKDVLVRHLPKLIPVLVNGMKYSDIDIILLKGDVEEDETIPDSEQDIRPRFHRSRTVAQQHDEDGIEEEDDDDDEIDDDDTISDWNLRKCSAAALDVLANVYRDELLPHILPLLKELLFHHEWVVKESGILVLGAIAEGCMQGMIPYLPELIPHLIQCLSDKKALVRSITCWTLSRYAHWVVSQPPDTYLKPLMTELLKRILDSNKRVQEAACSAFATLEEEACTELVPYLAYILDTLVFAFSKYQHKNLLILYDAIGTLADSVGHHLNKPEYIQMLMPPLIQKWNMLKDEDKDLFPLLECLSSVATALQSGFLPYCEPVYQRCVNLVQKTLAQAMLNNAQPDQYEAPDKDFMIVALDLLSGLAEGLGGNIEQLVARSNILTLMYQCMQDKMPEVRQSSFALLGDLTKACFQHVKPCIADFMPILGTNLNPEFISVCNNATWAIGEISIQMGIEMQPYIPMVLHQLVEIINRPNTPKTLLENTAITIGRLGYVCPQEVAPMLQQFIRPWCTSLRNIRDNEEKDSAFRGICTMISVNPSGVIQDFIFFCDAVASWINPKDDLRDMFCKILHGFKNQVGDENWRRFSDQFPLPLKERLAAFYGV
As to the kind of experiment: differential scanning fluorimetry; His-tagged NTR at 0.5 μM in TPB with 2 mM DTT, His-NOSIP or Ubc9 titrated in 18 steps from 0.05 to 5 μM, 5x SYPRO Orange, 25 to 90 °C; Tm plotted against concentration, exponential fit.

Another assay deals with T3, His-importin 13 (UniProt O94829 1-963).
T3 construct: importin 13; also called Imp 13; His-Imp13; source: E. coli JM109, purified (Ni-NTA agarose, size exclusion chromatography)
T3 sequence (looked up): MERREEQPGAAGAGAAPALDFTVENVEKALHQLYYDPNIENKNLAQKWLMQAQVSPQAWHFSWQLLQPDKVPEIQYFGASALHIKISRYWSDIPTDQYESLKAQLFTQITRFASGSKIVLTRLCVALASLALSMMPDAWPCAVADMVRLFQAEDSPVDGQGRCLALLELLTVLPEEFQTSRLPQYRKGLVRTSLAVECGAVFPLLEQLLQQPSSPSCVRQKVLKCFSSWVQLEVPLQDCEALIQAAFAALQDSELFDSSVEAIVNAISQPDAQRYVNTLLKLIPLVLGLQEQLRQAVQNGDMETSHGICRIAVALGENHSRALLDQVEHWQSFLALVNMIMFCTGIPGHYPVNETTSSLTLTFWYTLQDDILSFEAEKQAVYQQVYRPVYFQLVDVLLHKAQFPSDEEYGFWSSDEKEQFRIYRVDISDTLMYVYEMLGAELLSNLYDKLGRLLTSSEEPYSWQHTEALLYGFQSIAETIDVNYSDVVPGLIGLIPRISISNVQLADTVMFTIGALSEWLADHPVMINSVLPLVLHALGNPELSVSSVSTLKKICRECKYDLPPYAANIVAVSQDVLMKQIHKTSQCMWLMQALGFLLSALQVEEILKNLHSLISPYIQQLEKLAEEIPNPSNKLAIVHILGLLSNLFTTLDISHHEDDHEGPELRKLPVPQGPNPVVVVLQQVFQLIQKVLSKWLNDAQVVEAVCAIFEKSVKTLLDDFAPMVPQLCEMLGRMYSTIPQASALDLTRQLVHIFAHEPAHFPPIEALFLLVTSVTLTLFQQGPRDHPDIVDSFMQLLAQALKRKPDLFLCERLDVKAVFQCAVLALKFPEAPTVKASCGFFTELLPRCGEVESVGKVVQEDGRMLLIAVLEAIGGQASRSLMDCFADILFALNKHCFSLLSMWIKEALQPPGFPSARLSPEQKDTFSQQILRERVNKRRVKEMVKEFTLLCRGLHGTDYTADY
The description is as above.

Assay [4] has as its target T1, His-S-importin β (full length). The experiment in a line: pull-down; 100 pmol GST-IBB, GST-NOSIP or GST immobilised on glutathione Sepharose beads, 100 pmol His-S-tagged importin β FL, ΔN or ΔC; Western blot with anti-importin β.
Assay [5] has as its target T4, importin β ΔC (aa 1-396), His-S-tagged (UniProt Q14974 1-396).
T4 construct: also called Imp β ΔC; N-terminal (ΔC) fragment
Described as above.

The target of assay [6] is RanQ69L (aa 1-180) loaded with GTP (UniProt P62826 1-180, Q69L). The experiment in a line: pull-down; GST-M9 or GST-NOSIP immobilised on glutathione Sepharose beads, MBP-tagged TNPO1 FL, ΔN or ΔC, with or without RanQ69L(1-180)-GTP; Coomassie.

T1 sequence (Q14974 whole entry, the tested form may be a part): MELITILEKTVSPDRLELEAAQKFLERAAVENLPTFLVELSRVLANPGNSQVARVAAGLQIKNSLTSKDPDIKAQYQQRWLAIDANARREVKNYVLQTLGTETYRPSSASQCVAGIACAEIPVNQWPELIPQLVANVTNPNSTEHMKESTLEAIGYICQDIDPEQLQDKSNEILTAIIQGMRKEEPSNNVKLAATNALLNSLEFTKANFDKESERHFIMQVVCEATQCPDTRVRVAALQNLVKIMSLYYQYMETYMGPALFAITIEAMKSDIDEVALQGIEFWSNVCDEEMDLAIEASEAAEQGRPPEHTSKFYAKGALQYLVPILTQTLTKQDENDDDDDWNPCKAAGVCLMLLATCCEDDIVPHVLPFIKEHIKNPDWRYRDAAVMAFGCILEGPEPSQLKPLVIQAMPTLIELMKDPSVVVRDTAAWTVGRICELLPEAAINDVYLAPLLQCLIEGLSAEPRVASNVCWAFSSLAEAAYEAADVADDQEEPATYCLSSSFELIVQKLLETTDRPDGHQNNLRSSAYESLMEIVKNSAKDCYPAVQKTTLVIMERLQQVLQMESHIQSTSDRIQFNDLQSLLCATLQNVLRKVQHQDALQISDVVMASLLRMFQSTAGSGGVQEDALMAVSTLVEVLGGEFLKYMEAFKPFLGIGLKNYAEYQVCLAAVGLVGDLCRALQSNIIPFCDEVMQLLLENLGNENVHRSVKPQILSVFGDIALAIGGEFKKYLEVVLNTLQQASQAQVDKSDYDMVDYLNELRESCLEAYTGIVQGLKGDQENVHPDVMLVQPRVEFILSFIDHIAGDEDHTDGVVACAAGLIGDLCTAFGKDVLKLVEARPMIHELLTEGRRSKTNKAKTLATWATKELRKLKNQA
T4 sequence (Q14974 1-396, stated change not applied): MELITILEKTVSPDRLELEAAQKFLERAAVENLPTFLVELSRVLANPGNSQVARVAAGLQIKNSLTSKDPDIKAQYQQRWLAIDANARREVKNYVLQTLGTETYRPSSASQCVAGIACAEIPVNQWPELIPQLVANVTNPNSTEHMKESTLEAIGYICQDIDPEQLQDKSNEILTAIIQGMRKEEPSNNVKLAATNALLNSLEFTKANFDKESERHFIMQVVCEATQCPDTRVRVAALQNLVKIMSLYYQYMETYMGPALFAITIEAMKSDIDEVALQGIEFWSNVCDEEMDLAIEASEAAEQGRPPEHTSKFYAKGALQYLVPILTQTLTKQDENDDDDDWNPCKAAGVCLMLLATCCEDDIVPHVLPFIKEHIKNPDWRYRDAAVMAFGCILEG

B1: His-NOSIP-MBP (nitric oxide synthase interacting protein) (natural protein, UniProt Q9Y314 1-301, looked up)
chain: MTRHGKNCTAGAVYTYHEKKKDTAASGYGTQNIRLSRDAVKDFDCCCLSLQPCHDPVVTPDGYLYEREAILEYILHQKKEIARQMKAYEKQRGTRREEQKELQRAASQDHVRGFLEKESAIVSRPLNPFTAKALSGTSPDDVQPGPSVGPPSKDKDKVLPSFWIPSLTPEAKATKLEKPSRTVTCPMSGKPLRMSDLTPVHFTPLDSSVDRVGLITRSERYVCAVTRDSLSNATPCAVLRPSGAVVTLECVEKLIRKDMVDPVTGDKLTDRDIIVLQRGGTGFAGSGVKLQAEKSRPVMQA
notes: Name is printed in the order His-NOSIP-MBP; also called wildtype (WT) His-NOSIP-MBP; immobilized NOSIP; source: E. coli JM109, purified (Ni-NTA agarose, amylose resin, dialysis)
In the case of B1, in assay [1], the binding result was “binds”.

B2: His-NOSIP (natural protein, UniProt Q9Y314 1-301, looked up)
chain: MTRHGKNCTAGAVYTYHEKKKDTAASGYGTQNIRLSRDAVKDFDCCCLSLQPCHDPVVTPDGYLYEREAILEYILHQKKEIARQMKAYEKQRGTRREEQKELQRAASQDHVRGFLEKESAIVSRPLNPFTAKALSGTSPDDVQPGPSVGPPSKDKDKVLPSFWIPSLTPEAKATKLEKPSRTVTCPMSGKPLRMSDLTPVHFTPLDSSVDRVGLITRSERYVCAVTRDSLSNATPCAVLRPSGAVVTLECVEKLIRKDMVDPVTGDKLTDRDIIVLQRGGTGFAGSGVKLQAEKSRPVMQA
notes: Lacks the MBP tag; source: E. coli JM109, purified (Ni-NTA agarose, size exclusion chromatography)
Broadly, the Kd is the free concentration of one partner at which half of the binding sites on the other are occupied at equilibrium, for simple one-to-one binding. Low values mean higher affinity, high ones lower affinity. B2: the binding result in assay [2] was “binds”. Further, the Kd was 233 ± 60 nM in assay [3] and 417 ± 100 nM with His-importin 13.

B3: GST-NOSIP (natural protein, UniProt Q9Y314 1-301, looked up)
chain: MTRHGKNCTAGAVYTYHEKKKDTAASGYGTQNIRLSRDAVKDFDCCCLSLQPCHDPVVTPDGYLYEREAILEYILHQKKEIARQMKAYEKQRGTRREEQKELQRAASQDHVRGFLEKESAIVSRPLNPFTAKALSGTSPDDVQPGPSVGPPSKDKDKVLPSFWIPSLTPEAKATKLEKPSRTVTCPMSGKPLRMSDLTPVHFTPLDSSVDRVGLITRSERYVCAVTRDSLSNATPCAVLRPSGAVVTLECVEKLIRKDMVDPVTGDKLTDRDIIVLQRGGTGFAGSGVKLQAEKSRPVMQA
notes: also called immobilized GST-NOSIP; source: E. coli JM109, purified (glutathione Sepharose, size exclusion chromatography)
Consider B3, for which the binding result in assay [4] and in assay [5] was “binds” each time.

B4: MBP-TNPO1 FL (aa 1-890) (natural protein)
chain: MEYEWKPDEQGLQQILQLLKESQSPDTTIQRTVQQKLEQLNQYPDFNNYLIFVLTKLKSEDEPTRSLSGLILKNNVKAHFQNFPNGVTDFIKSECLNNIGDSSPLIRATVGILITTIASKGELQNWPDLLPKLCSLLDSEDYNTCEGAFGALQKICEDSAEILDSDVLDRPLNIMIPKFLQFFKHSSPKIRSHAVACVNQFIISRTQALMLHIDSFIENLFALAGDEEPEVRKNVCRALVMLLEVRMDRLLPHMHNIVEYMLQRTQDQDENVALEACEFWLTLAEQPICKDVLVRHLPKLIPVLVNGMKYSDIDIILLKGDVEEDETIPDSEQDIRPRFHRSRTVAQQHDEDGIEEEDDDDDEIDDDDTISDWNLRKCSAAALDVLANVYRDELLPHILPLLKELLFHHEWVVKESGILVLGAIAEGCMQGMIPYLPELIPHLIQCLSDKKALVRSITCWTLSRYAHWVVSQPPDTYLKPLMTELLKRILDSNKRVQEAACSAFATLEEEACTELVPYLAYILDTLVFAFSKYQHKNLLILYDAIGTLADSVGHHLNKPEYIQMLMPPLIQKWNMLKDEDKDLFPLLECLSSVATALQSGFLPYCEPVYQRCVNLVQKTLAQAMLNNAQPDQYEAPDKDFMIVALDLLSGLAEGLGGNIEQLVARSNILTLMYQCMQDKMPEVRQSSFALLGDLTKACFQHVKPCIADFMPILGTNLNPEFISVCNNATWAIGEISIQMGIEMQPYIPMVLHQLVEIINRPNTPKTLLENTAITIGRLGYVCPQEVAPMLQQFIRPWCTSLRNIRDNEEKDSAFRGICTMISVNPSGVIQDFIFFCDAVASWINPKDDLRDMFCKILHGFKNQVGDENWRRFSDQFPLPLKERLAAFYGV
notes: transportin 1, full length printed as aa 1-890 (890 residues); also called full-length TNPO1; source: E. coli BL21DE3, purified (amylose resin, size exclusion chromatography)
On to B4, for which, in assay [6], the binding result is reported as “binds”.
